Measured values from patent US20220195455A1, “DELIVERY OF CRISPR/MCAS9 THROUGH EXTRACELLULAR VESICLES FOR GENOME EDITING” (University of Georgia Research Foundation, Inc., priority 2019, published 2022).

Assays:
Test in all cases: NMT1 activity assay (CoA release, fluorescence);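 also: released CoA from NMT1-catalysed myristoylation of octapeptide substrates detected by fluorescence after reaction with a maleimide coumarin dye (excitation 390 nm, emission 479 nm), triplicate points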
Format in all cases: biochemical
Details in all cases: other: octapeptide as NMT1 substrate; full length NMT1
[1] = substrate: CC(C)C[C@H](NC(=O)CN)C(=O)N[C@@H](CC(C)C)C(=O)N[C@@H](CC(=O)O)C(=O)N[C@@H](CCCNC(=N)N)C(=O)N[C@@H](CC(C)C)C(=O)N[C@@H](CO)C(=O)N[C@H](C(=O)O)C(C)C
Description: (§1) The amount of the released CoA were reacted with 7-diethylamino-3-(4′-maleimidylphenyl)-4-methylcoumarin. The assay was performed in 96-well black microplates. The produced fluorescence intensity was measured by Flex Station 3, and detected by microplate reader (excitation at 390 nm; emission at 479 nm).
(§2) The amount of the released CoA were reacted with 7-diethylamino-3-(4′-maleimidylphenyl)-4-methylcoumarin. The assay was performed in 96-well black microplates. The produced fluorescence intensity was measured by Flex Station 3, and detected by microplate reader (excitation at 390 nm; emission at 479 nm). To measure the Km and Vmax of NMT1 which catalyzed various octapeptides substrates derived from various proteins, twenty-five octapeptides were synthesized by GenScript. […] Each data point has three repeats.
(§3) Km and Vmax catalyzed by full length NMT1 protein were calculated.

[2] = substrate: CC(C)C[C@H](NC(=O)CNC(=O)CN)C(=O)N[C@@H](Cc1ccccc1)C(=O)N[C@@H](CO)C(=O)N[C@@H](CCCNC(=N)N)C(=O)N[C@@H](Cc1c[nH]c2ccccc12)C(=O)N[C@@H](CCCNC(=N)N)C(=O)O
Description: as §1, §2, §3

[3] = substrate: CC(C)C[C@H](NC(=O)[C@H](C)NC(=O)[C@H](CO)NC(=O)[C@H](CC(N)=O)NC(=O)[C@H](CCC(=O)O)NC(=O)[C@H](CO)NC(=O)CN)C(=O)N[C@@H](CCCCN)C(=O)O
Description: as §1, §2, §3

[4] = substrate: CC(C)C[C@H](NC(=O)[C@H](CCC(N)=O)NC(=O)[C@H](CCC(N)=O)NC(=O)[C@H](CO)NC(=O)[C@H](C)NC(=O)[C@H](CCCCN)NC(=O)[C@H](CCC(N)=O)NC(=O)CN)C(=O)O
Description: as §1, §2, §3

[5] = substrate: CC(C)C[C@H](NC(=O)[C@H](CS)NC(=O)[C@H](CC(N)=O)NC(=O)CN)C(=O)N[C@@H](CCCCN)C(=O)N[C@@H](CO)C(=O)N1CCC[C@H]1C(=O)N[C@H](C(=O)O)[C@@H](C)O
Description: as §1, §2, §3

[6] = substrate: CC(C)C[C@H](NC(=O)[C@H](Cc1c[nH]cn1)NC(=O)[C@H](C)NC(=O)CN)C(=O)N[C@H](C(=O)N[C@@H](CCCNC(=N)N)C(=O)N[C@@H](CCCNC(=N)N)C(=O)N[C@@H](Cc1ccc(O)cc1)C(=O)O)C(C)C
Description: as §1, §2, §3

[7] = substrate: CC(C)[C@H](NC(=O)[C@H](CCCNC(=N)N)NC(=O)[C@H](CO)NC(=O)CN)C(=O)N[C@@H](CO)C(=O)N[C@@H](CCCNC(=N)N)C(=O)N[C@@H](CCC(=O)O)C(=O)N[C@@H](CC(=O)O)C(=O)O
Description: as §1, §2, §3

[8] = substrate: CC(C)[C@H](NC(=O)[C@H](CS)NC(=O)CN)C(=O)N[C@@H](CCC(N)=O)C(=O)N[C@@H](CS)C(=O)N[C@@H](CCCCN)C(=O)N[C@@H](CC(=O)O)C(=O)N[C@@H](CCCCN)C(=O)O
Description: as §1, §2, §3

[9] = substrate: CC[C@H](C)[C@H](NC(=O)CNC(=O)[C@H](CCCNC(=N)N)NC(=O)[C@@H](NC(=O)[C@@H](NC(=O)[C@H](CC(C)C)NC(=O)[C@H](C)NC(=O)CN)C(C)C)[C@@H](C)CC)C(=O)O
Description: as §1, §2, §3

[10] = substrate: CC[C@H](C)[C@H](NC(=O)[C@@H](NC(=O)[C@H](CC(C)C)NC(=O)[C@H](CC(C)C)NC(=O)CN)[C@@H](C)O)C(=O)N[C@@H](CC(C)C)C(=O)N[C@@H](CCCCN)C(=O)N[C@@H](CCCCN)C(=O)O
Description: as §1, §2, §3

[11] = substrate: CC[C@H](C)[C@H](NC(=O)[C@H](CCCCN)NC(=O)[C@H](CO)NC(=O)[C@H](CC(C)C)NC(=O)[C@@H](NC(=O)[C@H](CCCCN)NC(=O)CN)C(C)C)C(=O)N[C@@H](Cc1ccccc1)C(=O)O
Description: as §1, §2, §3

[12] = substrate: CC[C@H](C)[C@H](NC(=O)[C@H](CS)NC(=O)CN)C(=O)N[C@@H](CCCCN)C(=O)N[C@@H](CO)C(=O)N[C@@H](CCCCN)C(=O)NCC(=O)N[C@@H](CCCCN)C(=O)O
Description: as §1, §2, §3

[13] = substrate: CC[C@H](C)[C@H](NC(=O)[C@H](CS)NC(=O)CN)C(=O)N[C@@H](CCCCN)C(=O)N[C@@H](CO)C(=O)N[C@@H](CCCCN)C(=O)N[C@@H](CCC(=O)O)C(=O)N[C@@H](CC(N)=O)C(=O)O
Description: as §1, §2, §3

[14] = substrate: CSCC[C@H](NC(=O)[C@@H](NC(=O)[C@H](CCC(=O)O)NC(=O)CN)[C@@H](C)O)C(=O)N[C@@H](CO)C(=O)N[C@@H](CCCCN)C(=O)N[C@@H](CCCNC(=N)N)C(=O)N[C@@H](CC(C)C)C(=O)O
Description: as §1, §2, §3

[15] = substrate: C[C@H](N)C(=O)N[C@@H](CO)C(=O)N[C@@H](CC(N)=O)C(=O)N[C@@H](CCCCN)C(=O)N[C@@H](CO)C(=O)N[C@@H](CCCCN)C(=O)N1CCC[C@H]1C(=O)N[C@@H](CCCCN)C(=O)O
Description: as §1, §2, §3

[16] = substrate: C[C@H](NC(=O)[C@@H](NC(=O)[C@H](CCCCN)NC(=O)[C@H](CO)NC(=O)[C@H](Cc1ccccc1)NC(=O)[C@H](CCC(N)=O)NC(=O)[C@H](C)NC(=O)CN)[C@@H](C)O)C(=O)O
Description: as §1, §2, §3

[17] = substrate: C[C@H](NC(=O)[C@@H]1CCCN1C(=O)CNC(=O)[C@H](CO)NC(=O)[C@H](CCC(N)=O)NC(=O)[C@H](CCCCN)NC(=O)[C@H](C)NC(=O)CN)C(=O)O
Description: as §1, §2, §3

[18] = substrate: C[C@H](NC(=O)[C@H](CC(N)=O)NC(=O)CN)C(=O)N[C@@H](CCC(N)=O)C(=O)N[C@@H](CCC(=O)O)C(=O)N[C@@H](CCCNC(=N)N)C(=O)N1CCC[C@H]1C(=O)N[C@@H](CO)C(=O)O
Description: as §1, §2, §3

[19] = substrate: C[C@H](NC(=O)[C@H](CCCCN)NC(=O)[C@H](CO)NC(=O)[C@H](CO)NC(=O)[C@H](CCC(N)=O)NC(=O)[C@H](CO)NC(=O)CN)C(=O)N1CCC[C@H]1C(=O)O
Description: as §1, §2, §3

[20] = substrate: C[C@H](NC(=O)[C@H](CCCCN)NC(=O)[C@H](CO)NC(=O)[C@H](CO)NC(=O)[C@H](CCCCN)NC(=O)[C@H](CCCNC(=N)N)NC(=O)CN)C(=O)N[C@@H](CCCCN)C(=O)O
Description: as §1, §2, §3

[21] = substrate: N=C(N)NCCC[C@H](NC(=O)[C@H](CCCNC(=N)N)NC(=O)[C@H](CCCCN)NC(=O)[C@H](CO)NC(=O)[C@H](Cc1ccccc1)NC(=O)[C@H](Cc1ccccc1)NC(=O)[C@H](CS)NC(=O)CN)C(=O)O
Description: as §1, §2, §3

[22] = substrate: N=C(N)NCCC[C@H](NC(=O)[C@H](CS)NC(=O)CN)C(=O)N[C@@H](CCC(N)=O)C(=O)N[C@@H](CO)C(=O)N[C@@H](CO)C(=O)N[C@@H](CCC(=O)O)C(=O)N[C@@H](CCC(=O)O)C(=O)O
Description: as §1, §2, §3

[23] = substrate: N=C(N)NCCC[C@H](NC(=O)[C@H](Cc1ccc(O)cc1)NC(=O)[C@H](Cc1c[nH]cn1)NC(=O)[C@H](CCCNC(=N)N)NC(=O)[C@H](CO)NC(=O)[C@H](CCC(=O)O)NC(=O)[C@H](CCCNC(=N)N)NC(=O)CN)C(=O)O
Description: as §1, §2, §3

[24] = substrate: NCCCC[C@H](NC(=O)[C@@H]1CCCN1C(=O)[C@H](CCCCN)NC(=O)[C@H](CO)NC(=O)[C@H](CCCCN)NC(=O)[C@H](CC(N)=O)NC(=O)[C@H](CO)NC(=O)CN)C(=O)O
Description: as §1, §2, §3

B1: full length NMT1 protein (Homo sapiens) (protein)
chain: MADESETAVKPPAPPLPQMMEGNGNGHEHCSDCENEEDNSYNRGGLSPANDTGAKKKKKKQKKKKEKGSETDSAQDQPVKMNSLPAERIQEIQKAIELFSVGQGPAKTMEEASKRSYQFWDTQPVPKLGEVVNTHGPVEPDKDNIRQEPYTLPQGFTWDALDLGDRGVLKELYTLLNENYVEDDDNMFRFDYSPEFLLWALRPPGWLPQWHCGVRVVSSRKLVGFISAIPANIHIYDTEKKMVEINFLCVHKKLRSKRVAPVLIREITRRVHLEGIFQAVYTAGVVLPKPVGTCRYWHRSLNPRKLIEVKFSHLSRNMTMQRTMKLYRLPETPKTAGLRPMETKDIPVVHQLLTRYLKQFHLTPVMSQEEVEHWFYPQENIIDTFVVENANGEVTDFLSFYTLPSTIMNHPTHKSLKAAYSFYNVHTQTPLLDLMSDALVLAKMKGFDVFNALDLMENKTFLEKLKFGIGDGNLQYYLYNWKCPSMGAEKVGLVLQ
notes: Km and Vmax catalyzed by full length NMT1 protein were calculated
For B1, the Vmax [1] was 1.8 µM/min, the Km [2] was 10.3 µM and the Vmax [2] was 21.9 µM/min. For the same protein, the Km [3] was 0.8 µM, the Vmax [3] was 1.7 µM/min and the Km [4] was 15.7 µM. It also gave a Vmax [4] of 3.4 µM/min, a Km [5] of 16.7 µM and a Vmax [5] of 61.1 µM/min. It also gave a Km [6] of 16.4 µM, a Vmax [6] of 2.8 µM/min and a Km [7] of 79.2 µM. For the same protein, the Vmax [7] was 12.9 µM/min, the Km [8] was 5.2 µM and the Vmax [8] was 54.9 µM/min. The Km [9] was 0.5 µM, the Vmax [9] was 1.2 µM/min and the Km [10] was 0.4 µM. It also gave a Vmax [10] of 1.2 µM/min, a Km [11] of 4.4 µM and a Vmax [11] of 13.6 µM/min. For the same protein, the Km [12] was 22.5 µM, the Vmax [12] was 64.7 µM/min and the Km [13] was 14.4 µM. It also gave a Vmax [13] of 61 µM/min, a Km [14] of 13.0 µM and a Vmax [14] of 5.3 µM/min. For the same protein, the Vmax [15] was 1 µM/min, the Km [16] was 38.4 µM and the Vmax [16] was 6.4 µM/min. The Km [17] was 2.0 µM, the Vmax [17] was 1.6 µM/min and the Km [18] was 1.4 µM. The Vmax [18] was 2 µM/min, the Km [19] was 11.7 µM and the Vmax [19] was 6.6 µM/min. For the same protein, the Km [20] was 1.2 µM, the Vmax [20] was 1.8 µM/min and the Km [21] was 13.6 µM. For the same protein, the Vmax [21] was 60.8 µM/min, the Km [22] was 15.7 µM and the Vmax [22] was 64.4 µM/min. For the same protein, the Vmax [23] was 2 µM/min, the Km [24] was 14.3 µM and the Vmax [24] was 25.8 µM/min.
